From paper PMC3210151 (2011) come the findings set out here.

The term Kd denotes the equilibrium constant for the complex coming apart. Broadly, the koff is a measure of how fast the partners let go of each other. A higher koff goes with fast dissociation. By kon is commonly meant the rate constant with which the complex forms.

Assay [1] deals with RON Sema (Glu25-Gly524) (human) (UniProt Q04912). The assay is described as follows: SPR; same sensorgrams as the kinetic analysis (RON constructs amine-coupled to CM5, MSPβ as analyte, 10 mM Na-HEPES pH 8.0, 150 mM NaCl, 0.005% P20, 25°C); Kd from an equilibrium model. (In general: In SPR one partner is held on a chip, and binding of the other changes the refractive index at the surface.)

For assay [2], the target named is RON Sema-PSI (Glu25-Pro568) (human) (UniProt Q04912). Described as above.
Assay [3] concerns the target RON Sema-PSI-IPT1 (Glu25-Glu683) (human) (UniProt Q04912). The description is as above.
Assay [4] deals with RON Sema-PSI-IPT1–4 (Glu25-Ser956) (human) (UniProt Q04912). The assay is described as above.
The target of assay [5] is RON Sema (Glu25-Gly524) (human) (UniProt Q04912). Briefly: SPR; Biacore T100; RON constructs amine-coupled to a CM5 chip; MSPβ as analyte (wild type 5-500 nM, R689C 32-2000 nM); 10 mM Na-HEPES pH 8.0, 150 mM NaCl, 0.005% P20, 25°C; global fit to a 1:1 Langmuir kinetic model.
In assay [6] the target is RON Sema-PSI (Glu25-Pro568) (human) (UniProt Q04912). The description is as above.
The target in assay [7] is RON Sema-PSI-IPT1 (Glu25-Glu683) (human) (UniProt Q04912). Described as above.
The target in assay [8] is RON Sema-PSI-IPT1–4 (Glu25-Ser956) (human) (UniProt Q04912). The description is as above.
Assay [9] has as its target RON constructs. Briefly: SPR; dimeric MSPβ R689C on RON constructs; method and conditions not told in the sentence (SPR is the paper's only binding method).
Assay [10] concerns the target wild type MSPβ (macrophage stimulating protein β-chain with the adjoining 19 residues of the α-chain, … (human, UniProt P26927 465-711, C672S)). Briefly: SPR; solution competition.
Assay [11] addresses MSPβ R689C (Phe465-Gly711, C672S, R689C) (human, UniProt P26927 465-711, C672S | R689C). Briefly: SPR; solution competition.

As for “MSPβ R689C (Phe465-Gly711, C672S, R689C) (from UniProt P26927 465-711) (domain or fragment)”, the Kd in assay [1] turned out to be 139 nM; in [2], 244 nM; in assay [3], 154 nM; in [4], 158 nM; in assay [5] it was 170 nM; in assay [6], 233 nM. For the same molecule, the Kd in [7] came to 148 nM; in assay [8] it was 157 nM. In addition, the koff in assay [5] was determined as 0.081 s⁻¹; in [6] it was 0.062 s⁻¹; in assay [7] it was 0.129 s⁻¹; in assay [8] it was 0.055 s⁻¹. Moreover, the kon in assay [5] came out at 480000 M⁻¹ s⁻¹; in assay [6] it was 270000 M⁻¹ s⁻¹; in assay [7] it was 870000 M⁻¹ s⁻¹; in assay [8], 350000 M⁻¹ s⁻¹.

In turn, “dimeric MSPβ R689C (from UniProt P26927 465-711) (complex)” registered a Kd in [9] of 3.7 to 4.9 nM.

Consider “wild type MSPβ (macrophage stimulating protein β-chain with the adjoining 19 residues of the α-chain, Phe465-Gly711, C672S) (from UniProt P26927 465-711) (domain or fragment)”, for which the Kd was determined as 16.4 nM in assay [1]; 32 nM in assay [2]; 17.8 nM in [3]; 22.6 nM in assay [4]; 13.3 nM in [5]; 21.2 nM in assay [6]. Moreover, the figures for the dissociation constant (Kd) in [7] and in assay [8] were 15.1 nM and 13.5 nM, respectively. For the same molecule, the off-rate (koff) in [5] came to 0.031 s⁻¹; in assay [6], 0.028 s⁻¹; in assay [7] it was 0.027 s⁻¹; in assay [8] it was 0.023 s⁻¹. Moreover, the kon came to 2.31e+06 M⁻¹ s⁻¹ in assay [5], 1.33e+06 M⁻¹ s⁻¹ in assay [6], 1.76e+06 M⁻¹ s⁻¹ in [7] and 1.69e+06 M⁻¹ s⁻¹ in [8].

B1: RON Sema-PSI-IPT1–4 (Glu25-Ser956) (domain or fragment)
chain: EDWQCPRTPYAASRDFDVKYVVPSFSAGGLVQAMVTYEGDRNESAVFVAIRNRLHVLGPDLKSVQSLATGPAGDPGCQTCAACGPGPHGPPGDTDTKVLVLDPALPALVSCGSSLQGRCFLHDLEPQGTAVHLAAPACLFSAHHNRPDDCPDCVASPLGTRVTVVEQGQASYFYVASSLDAAVAASFSPRSVSIRRLKADASGFAPGFVALSVLPKHLVSYSIEYVHSFHTGAFVYFLTVQPASVTDDPSALHTRLARLSATEPELGDYRELVLDCRFAPKLVPRGSPEGGQPYPVLRVAHSAPVGAQLATELSIAEGQEVLFGVFVTGKDGGPGVGPNSVVCAFPIDLLDTLIDEGVERCCESPVHPGLRRGLDFFQSPSFCPNPPGLEALSPNTSCRHFPLLVSSSFSRVDLFNGLLGPVQVTALYVTRLDNVTVAHMGTMDGRILQVELVRSLNYLLYVSNFSLGDSGQPVQRDVSRLGDHLLFASGDQVFQVPIQGPGCRHFLTCGRCLRAWHFMGCGWCGNMCGQQKECPGSWQQDHCPPKLTEFHPHSGPLRGSTRLTLCGSNFYLHPSGLVPEGTHQVTVGQSPCRPLPKDSSKLRPVPRKDFVEEFECELEPLGTQAVGPTNVSLTVTNMPPGKHFRVDGTSVLRGFSFMEPVLIAVQPLFGPRAGGTCLTLEGQSLSVGTSRAVLVNGTECLLARVSEGQLLCATPPGATVASVPLSLQVGGAQVPGSWTFQYREDPVVLSISPNCGYINSHITICGQHLTSAWHLVLSFHDGLRAVESRCERQLPEQQLCRLPEYVVRDPQGWVAGNLSARGDGAAGFTLPGFRFLPPPHPPSANLVPLKPEEHAIKFEYIGLGAVADCVGINVTVGGESCQHEFRGDMVVCPLPPSLQLGQDGAPLQVCVDGECHILGRVVRPGPDGVPQS
Take B1: the values for the Kd in assay [10] and in [11] were 52.8 nM and 381 nM, respectively.

B2: RON Sema (Glu25-Gly524) (domain or fragment)
chain: EDWQCPRTPYAASRDFDVKYVVPSFSAGGLVQAMVTYEGDRNESAVFVAIRNRLHVLGPDLKSVQSLATGPAGDPGCQTCAACGPGPHGPPGDTDTKVLVLDPALPALVSCGSSLQGRCFLHDLEPQGTAVHLAAPACLFSAHHNRPDDCPDCVASPLGTRVTVVEQGQASYFYVASSLDAAVAASFSPRSVSIRRLKADASGFAPGFVALSVLPKHLVSYSIEYVHSFHTGAFVYFLTVQPASVTDDPSALHTRLARLSATEPELGDYRELVLDCRFAPKLVPRGSPEGGQPYPVLRVAHSAPVGAQLATELSIAEGQEVLFGVFVTGKDGGPGVGPNSVVCAFPIDLLDTLIDEGVERCCESPVHPGLRRGLDFFQSPSFCPNPPGLEALSPNTSCRHFPLLVSSSFSRVDLFNGLLGPVQVTALYVTRLDNVTVAHMGTMDGRILQVELVRSLNYLLYVSNFSLGDSGQPVQRDVSRLGDHLLFASGDQVFQVPIQG
As for B2, in assay [10], the Kd worked out at 17.6 nM.
